Data as given in US20180306795A1 (CIZZLE BIOTECHNOLOGY, published 2018).
No end group written: not given here.

Columns and labels:
[1] = target: T1, human fibrinogen alpha chain (carrier protein in human plasma) (human, UniProt P02671-2 20-629); assay: peptide incubated with normal human plasma, reducing SDS-PAGE, western blot with 2B and 043
T1 construct: mature; This is the carrier protein of normal plasma that runs at about 65-70 kDa in reducing SDS-PAGE; also called Uniprot P02671
T1 sequence (looked up): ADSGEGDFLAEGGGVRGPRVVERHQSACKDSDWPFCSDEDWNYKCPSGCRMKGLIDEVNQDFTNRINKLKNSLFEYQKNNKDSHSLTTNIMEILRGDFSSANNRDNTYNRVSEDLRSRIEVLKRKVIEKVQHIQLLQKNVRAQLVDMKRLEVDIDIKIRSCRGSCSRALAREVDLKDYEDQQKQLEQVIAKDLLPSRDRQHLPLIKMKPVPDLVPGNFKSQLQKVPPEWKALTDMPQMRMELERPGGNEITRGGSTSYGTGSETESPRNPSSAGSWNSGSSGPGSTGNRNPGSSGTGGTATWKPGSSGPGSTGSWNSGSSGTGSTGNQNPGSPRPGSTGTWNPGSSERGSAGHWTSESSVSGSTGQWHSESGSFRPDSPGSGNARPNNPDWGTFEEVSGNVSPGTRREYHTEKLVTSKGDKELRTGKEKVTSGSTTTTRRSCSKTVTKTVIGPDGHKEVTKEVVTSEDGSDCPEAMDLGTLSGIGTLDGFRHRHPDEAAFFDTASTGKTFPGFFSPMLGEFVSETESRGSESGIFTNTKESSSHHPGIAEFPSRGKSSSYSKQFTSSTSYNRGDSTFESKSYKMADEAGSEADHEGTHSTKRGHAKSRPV
Procedure: (§1) Band identity was verified by ponceau S stain followed by Western blot with anti-CIZ1b antibody 043 of a parallel gel (right). B) Gel slices were soaked in 2% SDS-PAGE loading buffer (with 200 mM βME) and separated through a denaturing gel to recover the 043-reactive species at 70 kDa. Note that sample loaded as a gel slice is slightly retardation compared to markers which are loaded in solution. […] C) Western blot of normal human plasma (non-cancer, N) showing reconstitution of CIZ1b epitope via complex formation between a carrier protein in plasma and synthetic CIZ1b peptides of the indicated lengths, but not equivalent CIZ1a peptide (Table 2). Note that free peptides migrate in reducing SDS-PAGE with a relative mobility 3 times expected (˜21 kDa instead of 7.6 kDa for b66, ˜5 kDa instead of 1.6 for b13). None are recognized by CIZ1b antibodies in western blot unless complexed with carrier protein. For CIZ1b66 peptide a new reactive species is created at ˜80 kDa, while CIZ1b13 peptide increases antigenicity at the same mobility as the endogenous epitope in lung cancer plasmas (C, lane 1). D) Western blot of non-reducing SDS-PAGE gel showing purified fibrinogen (6 nmols) in all lanes (upper), with and without prior incubation with 100 pmols of the indicated peptides (Table 2), probed with CIZ1b antibodies as indicated. […]

[2] = target: T1, human fibrinogen alpha chain (carrier …); assay: peptide incubated with normal human plasma, western blot (FIG. 10C)
Procedure: as §1

[3] = target: T1, human fibrinogen alpha chain (carrier …); assay: 50 nmols peptide mixed with 0.5 ul non-cancer plasma, western blot
Procedure: FIG. 3—Ciz1 b-variant ˜65-70 kDa species is a Ciz1 b-variant peptide stably bound to a carrier protein, which may augment antigenicity of Ciz1 b-variant peptide. a) Western blot illustrating cancer-selective epitope recognised by anti-Ciz1 b-variant antibody 2B, as described previously (Higgins et al; as above). b) Reconstitution of a Ciz1 b-variant epitope from synthetic b-variant peptide (50 nmols of […] DFLV—SEQ ID NO: 12) mixed with 0.5 ul of non-cancer plasma. Free peptide migrates with mobility indicative of a MW 3-4× greater than predicted (˜30 kDa instead of 7.6 kDa), indicated by blue arrow. When incubated in plasma mobility decreases, antigenicity increases, and a new species is created at ˜80 kDa, indicated by red arrow. c) Similar results were generated with a separate anti-Ciz1 b-variant monoclonal antibody. d) For reference, a duplicate blot is probed with a monoclonal antibody that is selective for the exon 14a version of the peptide ([…]—SEQ ID NO: 13), showing detection of the peptide in lanes 1 and 3. Key: Lane 1, WT peptide only. Lane 2, B-var peptide only. Lane 3, WT peptide+normal plasma. Lane 4, B-var peptide+normal plasma. Lane 5, normal plasma only. […] F) Western blot showing titration of short peptide ([…]—SEQ ID NO: 2) into cancer patient plasma, detected with anti-Ciz1 b-variant monoclonal antibody (upper) or anti-Ciz1 b-variant polyclonal antibody 043 (lower).

[4] = target: T1, human fibrinogen alpha chain (carrier …); assay: peptide combined with plasma, western blot

B1: Short CIZ1b peptide (b13) (peptide)
peptide: CDEEEIEVRSRDIS-NH2
notes: also called CIZ1b13
Q: Does B1 bind [1]?
A: binds

B2: Long CIZ1b peptide (b66) (peptide)
peptide: EIAGQDEDHFITVDAVGCFEGDEEEEEDDEDEEEIEVRSRDISREEWKGSETYSPNTAYGVDFLVP
notes: also called CIZ1b66
Q: Does B2 bind [2]?
A: binds

B3: Long Ciz1 b-variant peptide (SEQ ID NO: 12) (peptide)
peptide: EIAGQDEDHFITVDAVGCFEGDEEEEEDDEDEEEIEVRSRDISREEWKGSETYSPNTAYGVDFLV
notes: also called synthetic b-variant peptide; B-var peptide
Q: Does B3 bind [3]?
A: binds

B4: Short Ciz1 b-variant peptide DEEEIEVRSRDIS (peptide)
peptide: DEEEIEVRSRDIS
notes: also called short b-variant peptide; short peptide
Q: Does B4 bind [4]?
A: binds
